The results in this text go back to paper PMC8262983.

The assay addresses recombinant 6×His-HSP70 (P. falciparum).

B1: recombinant 6×His-HSP40 (natural protein)
chain: MFFSSGFPFDSMGGQQARRKREVNNNKFYEVLNLKKNCTTDEVKKAYRKLAIIHHPDKGGDPEKFKEISRAYEVLSDEEKRKLYDEYGEEGLENGEQPADATDLFDFILNAGKGKKKRGEDIVSEVKVTLEQLYNGATKKLAISKDIICTNCEGHGGPKDAKVDCKQCNGRGTKTYMRYHSSVLHQTEVTCNTCRGKGKIFNEKDKCANCKGMCVLKTRKIIEVYIPKGAPNKHKIVFNGEADEKPNVITGNLVVILNEKQHPVFRREGIDLFMNYKISLYESLTGFVAEVTHLDERKILVNCTNSGFIRHGDIREVLDEGMPTYKDPFKKGNLYITFEVEYPMDLIITNENKEVLKILKKQNEVEKKYDLENSELEVVSCSPVDKEYIKVRVTKQQQQQQQEAYDDEDHQPEMEGGRVACAQQ
B1: the ATPase activity of HSP70 (EnzChek phosphate assay; 45 μg HSP70 with 8.9 μg HSP40 against HSP70 alone) was 3 fold.
